Experimental data: patent CN1660912A
Each block holds one binder with its values, some of them ahead of it.

Experiments:
[1] = target: 白细胞介素-8(IL-8), E.Coli表达的基因重组人体单核细胞来源的IL-8, 72个氨基酸 (human) (UniProt P10145); assay: ELISA, plate coated with 1ug/ml IL-8, antibody 30 ng/ml, replicate 2
[2] = target: 白细胞介素-8(IL-8), E.Coli表达的基因重组人体单核细胞来源的IL-8, 72个氨基酸 (human) (UniProt P10145); assay: ELISA, plate coated with 1ug/ml IL-8, antibody 3 ng/ml, mean
[3] = target: 白细胞介素-8(IL-8), E.Coli表达的基因重组人体单核细胞来源的IL-8, 72个氨基酸 (human) (UniProt P10145); assay: ELISA, plate coated with 1ug/ml IL-8, antibody 15 ng/ml, mean
[4] = target: 白细胞介素-8(IL-8), E.Coli表达的基因重组人体单核细胞来源的IL-8, 72个氨基酸 (human) (UniProt P10145); assay: ELISA, plate coated with 1ug/ml IL-8, antibody 3 ng/ml, replicate 2
[5] = target: 白细胞介素-8(IL-8), E.Coli表达的基因重组人体单核细胞来源的IL-8, 72个氨基酸 (human) (UniProt P10145); assay: ELISA, plate coated with 1ug/ml IL-8, antibody 15 ng/ml, replicate 2
GCP2 = GCP2 (UniProt P80162); assay: ELISA, cross-reaction with IL-8 homologues (Table 2)
ENA78 = target: T1, ENA78 (UniProt P42830); assay: as above
T1 sequence (looked up): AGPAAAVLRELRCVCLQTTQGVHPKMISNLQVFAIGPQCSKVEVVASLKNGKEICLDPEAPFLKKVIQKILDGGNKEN

PF-4 = target: T2, PF-4 (UniProt P02776); assay: as above
T2 sequence (looked up): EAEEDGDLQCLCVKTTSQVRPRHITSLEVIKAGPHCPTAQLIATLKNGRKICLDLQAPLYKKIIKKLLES

GROα = GROα (UniProt P09341); assay: as above
NAP-2 = target: T3, NAP-2 (UniProt P02775); assay: as above
T3 sequence (looked up): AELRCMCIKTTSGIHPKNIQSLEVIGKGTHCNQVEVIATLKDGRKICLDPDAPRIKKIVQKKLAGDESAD

[6] = target: 白细胞介素-8(IL-8), E.Coli表达的基因重组人体单核细胞来源的IL-8, 72个氨基酸 (human) (UniProt P10145); assay: as above
[7] = target: 白细胞介素-8(IL-8), E.Coli表达的基因重组人体单核细胞来源的IL-8, 72个氨基酸 (human) (UniProt P10145); assay: ELISA, plate coated with 1ug/ml IL-8, antibody 30 ng/ml, replicate 1
[8] = target: 白细胞介素-8(IL-8), E.Coli表达的基因重组人体单核细胞来源的IL-8, 72个氨基酸 (human) (UniProt P10145); assay: ELISA, plate coated with 1ug/ml IL-8, antibody 30 ng/ml, mean
[9] = target: 白细胞介素-8(IL-8), E.Coli表达的基因重组人体单核细胞来源的IL-8, 72个氨基酸 (human) (UniProt P10145); assay: ELISA, plate coated with 1ug/ml IL-8, antibody 15 ng/ml, replicate 1
[10] = target: 白细胞介素-8(IL-8), E.Coli表达的基因重组人体单核细胞来源的IL-8, 72个氨基酸 (human) (UniProt P10145); assay: ELISA, plate coated with 1ug/ml IL-8, antibody 3 ng/ml, replicate 1
[11] = target: 白细胞介素-8(IL-8), E.Coli表达的基因重组人体单核细胞来源的IL-8, 72个氨基酸 (human) (UniProt P10145); assay: cell-based or functional assay
TGF-β = assay: ELISA, cross-reaction (Table 1)
M-CSF = target: T4, M-CSF (UniProt P09603); assay: ELISA, cross-reaction (Table 1)
T4 sequence (looked up): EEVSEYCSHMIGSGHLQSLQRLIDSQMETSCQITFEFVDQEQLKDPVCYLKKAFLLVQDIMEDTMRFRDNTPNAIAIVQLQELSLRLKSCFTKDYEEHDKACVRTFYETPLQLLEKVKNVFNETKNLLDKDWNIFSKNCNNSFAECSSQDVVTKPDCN

MCP-3 = MCP-3 (UniProt P80098); assay: ELISA, cross-reaction (Table 1)
b-FGF = b-FGF (UniProt P09038); assay: ELISA, cross-reaction (Table 1)
BSA = BSA (UniProt P02769); assay: ELISA, cross-reaction (Table 1)
HSA = HSA (UniProt P02768); assay: ELISA, cross-reaction (Table 1)
TNF-α = TNF-α (UniProt P01375); assay: ELISA, cross-reaction (Table 1)
IL-16 = IL-16 (UniProt Q14005); assay: ELISA, cross-reaction (Table 1)
GM-CSF = GM-CSF (UniProt P04141); assay: ELISA, cross-reaction (Table 1)
EGF = EGF (UniProt P01133); assay: ELISA, cross-reaction (Table 1)
IL-1β = IL-1β (UniProt P01584); assay: ELISA, cross-reaction (Table 1)
MCAF = MCAF (UniProt P13500); assay: ELISA, cross-reaction (Table 1)
IL-7 = target: T5, IL-7 (UniProt P13232); assay: ELISA, cross-reaction (Table 1)
T5 sequence (looked up): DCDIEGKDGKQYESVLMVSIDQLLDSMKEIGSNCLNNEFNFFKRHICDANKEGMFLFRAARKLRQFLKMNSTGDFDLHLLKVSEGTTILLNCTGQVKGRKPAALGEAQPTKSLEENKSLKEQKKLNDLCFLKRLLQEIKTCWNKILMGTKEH

[12] = target: 白细胞介素-8(IL-8), E.Coli表达的基因重组人体单核细胞来源的IL-8, 72个氨基酸 (human) (UniProt P10145); assay: ELISA, cross-reaction (Table 1)

UniProt P10145, sequence (P10145 21-99): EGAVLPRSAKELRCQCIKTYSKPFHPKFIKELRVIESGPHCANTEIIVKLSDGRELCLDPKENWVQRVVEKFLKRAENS
UniProt P80098, sequence (P80098 24-99 limits assumed): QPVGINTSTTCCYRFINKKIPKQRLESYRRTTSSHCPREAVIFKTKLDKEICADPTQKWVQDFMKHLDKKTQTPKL
UniProt P80162, sequence (P80162 38-114 limits assumed): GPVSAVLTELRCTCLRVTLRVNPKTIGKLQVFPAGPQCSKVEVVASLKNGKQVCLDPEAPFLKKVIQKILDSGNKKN
UniProt P13500, sequence (P13500 24-99 limits assumed): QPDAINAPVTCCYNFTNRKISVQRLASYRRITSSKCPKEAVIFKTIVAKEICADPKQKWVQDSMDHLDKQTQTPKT
UniProt P01584, sequence (P01584 117-269 limits assumed): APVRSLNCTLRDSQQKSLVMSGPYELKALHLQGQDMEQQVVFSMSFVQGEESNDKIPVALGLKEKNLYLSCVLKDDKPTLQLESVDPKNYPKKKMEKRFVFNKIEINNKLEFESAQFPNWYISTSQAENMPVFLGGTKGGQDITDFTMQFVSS
UniProt P01375, sequence (P01375 77-233 limits assumed): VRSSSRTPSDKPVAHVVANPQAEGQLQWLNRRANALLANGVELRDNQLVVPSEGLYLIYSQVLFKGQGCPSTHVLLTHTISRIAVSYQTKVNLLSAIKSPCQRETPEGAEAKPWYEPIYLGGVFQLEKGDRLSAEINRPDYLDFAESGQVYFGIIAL
UniProt Q14005, sequence (Q14005 1212-1332 limits assumed): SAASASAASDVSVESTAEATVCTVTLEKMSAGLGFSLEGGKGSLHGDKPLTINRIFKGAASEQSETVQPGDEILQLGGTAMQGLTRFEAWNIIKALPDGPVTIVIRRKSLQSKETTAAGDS
UniProt P09038, sequence (P09038 143-288 limits assumed): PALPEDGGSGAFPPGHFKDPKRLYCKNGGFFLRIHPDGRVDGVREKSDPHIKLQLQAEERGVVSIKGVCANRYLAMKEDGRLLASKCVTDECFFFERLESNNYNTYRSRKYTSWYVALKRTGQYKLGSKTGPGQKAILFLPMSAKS
UniProt P01133, sequence (P01133 971-1023 limits assumed): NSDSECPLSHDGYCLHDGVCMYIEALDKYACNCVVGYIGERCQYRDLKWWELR
UniProt P02769, sequence (P02769 25-607 limits assumed): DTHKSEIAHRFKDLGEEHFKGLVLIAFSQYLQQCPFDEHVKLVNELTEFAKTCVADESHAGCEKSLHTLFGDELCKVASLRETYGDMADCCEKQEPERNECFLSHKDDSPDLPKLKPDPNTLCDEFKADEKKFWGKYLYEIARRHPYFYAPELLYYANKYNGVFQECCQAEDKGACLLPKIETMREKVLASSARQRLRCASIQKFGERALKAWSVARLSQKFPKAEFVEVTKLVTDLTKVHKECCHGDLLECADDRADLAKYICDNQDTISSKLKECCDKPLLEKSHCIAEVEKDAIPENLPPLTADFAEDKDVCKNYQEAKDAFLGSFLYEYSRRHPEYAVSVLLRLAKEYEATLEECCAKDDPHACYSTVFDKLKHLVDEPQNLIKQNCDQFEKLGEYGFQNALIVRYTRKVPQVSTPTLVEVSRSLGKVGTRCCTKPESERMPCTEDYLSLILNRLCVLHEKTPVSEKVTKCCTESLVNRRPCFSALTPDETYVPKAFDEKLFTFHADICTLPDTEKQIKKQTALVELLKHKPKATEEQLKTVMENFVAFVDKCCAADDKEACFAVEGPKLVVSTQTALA
UniProt P04141, sequence (P04141 18-144 limits assumed): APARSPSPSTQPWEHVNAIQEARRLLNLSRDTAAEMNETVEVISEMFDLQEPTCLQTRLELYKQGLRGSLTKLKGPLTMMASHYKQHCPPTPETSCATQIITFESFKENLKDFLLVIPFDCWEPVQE
UniProt P02768, sequence (P02768 25-609): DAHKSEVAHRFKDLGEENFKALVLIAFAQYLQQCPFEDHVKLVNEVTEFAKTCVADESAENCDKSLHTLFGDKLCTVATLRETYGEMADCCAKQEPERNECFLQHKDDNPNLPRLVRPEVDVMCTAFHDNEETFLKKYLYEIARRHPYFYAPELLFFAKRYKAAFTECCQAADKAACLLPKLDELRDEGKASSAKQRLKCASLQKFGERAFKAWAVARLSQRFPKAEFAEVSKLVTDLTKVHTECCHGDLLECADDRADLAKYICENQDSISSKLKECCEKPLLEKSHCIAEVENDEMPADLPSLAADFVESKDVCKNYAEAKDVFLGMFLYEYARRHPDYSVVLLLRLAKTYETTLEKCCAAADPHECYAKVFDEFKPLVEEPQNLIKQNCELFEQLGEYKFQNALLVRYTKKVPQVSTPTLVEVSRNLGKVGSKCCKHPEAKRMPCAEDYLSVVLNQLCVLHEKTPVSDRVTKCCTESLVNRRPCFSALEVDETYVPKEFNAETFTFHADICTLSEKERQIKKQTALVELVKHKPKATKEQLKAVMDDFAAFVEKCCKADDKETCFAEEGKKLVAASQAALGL
UniProt P09341, sequence (P09341 35-107 limits assumed): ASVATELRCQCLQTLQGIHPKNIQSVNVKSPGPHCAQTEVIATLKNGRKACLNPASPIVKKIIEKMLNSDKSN

OD 450 [1]: 1.27 OD450
OD 450 平均值 [2]: 0.365 OD450
OD 450 平均值 [3]: 0.667 OD450
OD 450 [4]: 0.377 OD450
OD 450 [5]: 0.708 OD450
O.D.值 (GCP2): 0.088 OD
O.D.值 (ENA78): 0.073 OD
O.D.值 (PF-4): 0.113 OD
O.D.值 (GROα): 0.097 OD
O.D.值 (NAP-2): 0.031 OD
O.D.值 [6]: > 2 OD
OD 450 [7]: 1.09 OD450
OD 450 平均值 [8]: 1.18 OD450
OD 450 [9]: 0.626 OD450
OD 450 [10]: 0.352 OD450
化学趋向抑制率 (antibody 0.05μg/mL, IL-8 10ng/ml, Ab∶Ag 5∶1) [11]: 17.1%
化学趋向抑制率 (antibody 0.5μg/mL, IL-8 10ng/ml, Ab∶Ag 50∶1) [11]: 83.9%
化学趋向抑制率 (antibody 5μg/mL, IL-8 10ng/ml, Ab∶Ag 500∶1) [11]: 99.8%
化学趋向抑制率 (antibody 50μg/mL, IL-8 10ng/ml, Ab∶Ag 5000∶1) [11]: 118%
抑制率(%) (IL-8 20 ng/ml, antibody 0.1 ug/ml) [11]: 48.9%
抑制率(%) (IL-8 20 ng/ml, antibody 1 ug/ml) [11]: 81.1%
抑制率(%) (IL-8 20 ng/ml, antibody 10 ug/ml) [11]: 91.1%
趋化指数 (IL-8 20 ng/ml, antibody 0.1 ug/ml) [11]: 2.24
趋化指数 (IL-8 20 ng/ml, antibody 1 ug/ml) [11]: 1.46
趋化指数 (IL-8 20 ng/ml, antibody 10 ug/ml) [11]: 1.22
O.D.值 (TGF-β): 0.021 OD
O.D.值 (M-CSF): 0.044 OD
O.D.值 (MCP-3): 0.024 OD
O.D.值 (b-FGF): 0.027 OD
O.D.值 (BSA): 0.147 OD
O.D.值 (HSA): 0.129 OD
O.D.值 (TNF-α): 0.039 OD
O.D.值 (IL-16): 0.044 OD
O.D.值 (GM-CSF): 0.037 OD
O.D.值 (EGF): 0.044 OD
O.D.值 (IL-1β): 0.029 OD
O.D.值 (MCAF): 0.023 OD
O.D.值 (IL-7): 0.06 OD
O.D.值 [12]: > 2 OD
B1: 抗IL-8单克隆抗体 克隆6E6(又称I8-60) (antibody, part only; not given: light variable and mouse constant regions, IgG1, V domains shown, part only)
VH: QVKLQQSGGGLVQPGGSLKFSCAASGFDFSRYWMSWVRQAPGKGLEWIGEINPDSTTINYTPSLKDKFIISRDNAKNTLYLQMSKVRSEDTALYYCARLDGYYGYFDYWGQGTTVTVSS

OD 450 [1]: 2 OD450
OD 450 平均值 [2]: 0.402 OD450
OD 450 平均值 [3]: 1.12 OD450
OD 450 [4]: 0.398 OD450
OD 450 [5]: 1.14 OD450
OD 450 [7]: 1.9 OD450
OD 450 平均值 [8]: 1.95 OD450
OD 450 [9]: 1.09 OD450
OD 450 [10]: 0.406 OD450
抑制率(%) (IL-8 20 ng/ml, antibody 0.1 ug/ml) [11]: 48.2%
抑制率(%) (IL-8 20 ng/ml, antibody 1 ug/ml) [11]: 80.2%
抑制率(%) (IL-8 20 ng/ml, antibody 10 ug/ml) [11]: 75.1%
趋化指数 (IL-8 20 ng/ml, antibody 0.1 ug/ml) [11]: 2.25
趋化指数 (IL-8 20 ng/ml, antibody 1 ug/ml) [11]: 1.48
趋化指数 (IL-8 20 ng/ml, antibody 10 ug/ml) [11]: 1.6
B2: 抗IL-8嵌合型抗体 (Chimeric anti-IL8 Ab) (antibody, part only; not given: light variable and human constant regions, not shown: a dimerising Fc or GST)
heavy: B1 VH
